In PMC12730240 (Biosensors, 2025):

Target: T1, Shiga toxin 2 (E. coli (Shiga toxin-producing, STEC))
T1 construct: source: similarly expressed and purified as previously described [29]; copies: + 5
Assay: pull-down
Details: both partners purified

B1: nanobody G1 (NG1), biotinylated (VHH)
VHH: QVQLVESGGGLVQPGESLRLSCVASASTFSTSLMGWVRQAPGKGLESVAEVRTTGGTFYAKSVAGRFTISRDNAKNTLYLQMNSLKAEDTGVYYCTAGAGPIATRYRGQGTQVTVSS
notes: also called B2; source: E. coli SHuffle T7, purified (Ni-NTA IMAC)
binding result: binds
